In test [1] the target is T1, F1 (peptide-Fc fusion derived from the extracellular domain of human CD38) (human, UniProt P0DOX5 223-449 = IgG part).
T1 construct: 13-residue peptide fused to human IgG1 Fc (CH2-CH3) with an Ala-Ser linker; by count CD38 residues 43-55
Put plainly: SPR, antibody immobilized, peptide-Fc fusion injected.

Test [2] concerns the target T2, F2 (peptide-Fc fusion derived from the extracellular domain of human CD38) (human, UniProt P0DOX5 223-449 = IgG part).
T2 construct: As F1; by count CD38 residues 56-68
The test is described as above.

Test [3] deals with T3, F3 (peptide-Fc fusion derived from the extracellular domain of human CD38) (human, UniProt P0DOX5 223-449 = IgG part).
T3 construct: As F1; by count CD38 residues 69-81; also called F3 construct
The test is described as above.

Test [4] has as its target T4, F4 (peptide-Fc fusion derived from the extracellular domain of human CD38) (human, UniProt P0DOX5 223-449 = IgG part).
T4 construct: As F1; by count CD38 residues 82-94
The test is described as above.

Test [5] has as its target T5, F5 (peptide-Fc fusion derived from the extracellular domain of human CD38) (human, UniProt P0DOX5 223-449 = IgG part).
T5 construct: As F1; by count CD38 residues 95-107
Described as above.

Test [6] deals with T6, F7 (peptide-Fc fusion derived from the extracellular domain of human CD38) (human, UniProt P0DOX5 223-449 = IgG part).
T6 construct: As F1; by count CD38 residues 121-133
The description is as above.

The target of test [7] is T7, F8 (peptide-Fc fusion derived from the extracellular domain of human CD38) (human, UniProt P0DOX5 223-449 = IgG part).
T7 construct: As F1; by count CD38 residues 134-146
Described as above.

Test [8] has as its target T8, F9 (peptide-Fc fusion derived from the extracellular domain of human CD38) (human, UniProt P0DOX5 223-449 = IgG part).
T8 construct: As F1; by count CD38 residues 147-159
The description is as above.

The target of test [9] is T9, F13 (peptide-Fc fusion derived from the extracellular domain of human CD38) (human, UniProt P0DOX5 223-449 = IgG part).
T9 construct: As F1; by count CD38 residues 199-211
Described as above.

Test [10] concerns the target T10, F17 (peptide-Fc fusion derived from the extracellular domain of human CD38) (human, UniProt P0DOX5 223-449 = IgG part).
T10 construct: As F1; by count CD38 residues 251-263
Described as above.

Test [11] has as its target T11, F20 (peptide-Fc fusion derived from the extracellular domain of human CD38) (human, UniProt P0DOX5 223-449 = IgG part).
T11 construct: Final peptide of 11 amino acids, else as F1; by count CD38 residues 290-300
The description is as above.

Test [12] has as its target T12, F10 (peptide-Fc fusion derived from the extracellular domain of human CD38) (human, UniProt P0DOX5 223-449 = IgG part).
T12 construct: As F1; by count CD38 residues 160-172
As to the kind of experiment: SPR, humanized 9G7 immobilized on the chip, peptide-Fc fusion injected.

The target of test [13] is T13, F11 (peptide-Fc fusion derived from the extracellular domain of human CD38) (human, UniProt P0DOX5 223-449 = IgG part).
T13 construct: As F1; by count CD38 residues 173-185
Described as above.

Test [14] deals with T14, F12 (peptide-Fc fusion derived from the extracellular domain of human CD38) (human, UniProt P0DOX5 223-449 = IgG part).
T14 construct: As F1; by count CD38 residues 186-198
The description is as above.

Test [15] has as its target T15, F14 (peptide-Fc fusion derived from the extracellular domain of human CD38) (human, UniProt P0DOX5 223-449 = IgG part).
T15 construct: As F1; by count CD38 residues 212-224
The description is as above.

The target of test [16] is T16, F15 (peptide-Fc fusion derived from the extracellular domain of human CD38) (human, UniProt P0DOX5 223-449 = IgG part).
T16 construct: As F1; by count CD38 residues 225-237
Described as above.

Test [17] deals with T17, F16 (peptide-Fc fusion derived from the extracellular domain of human CD38) (human, UniProt P0DOX5 223-449 = IgG part).
T17 construct: As F1; by count CD38 residues 238-250
Described as above.

The target in test [18] is T18, F18 (peptide-Fc fusion derived from the extracellular domain of human CD38) (human, UniProt P0DOX5 223-449 = IgG part).
T18 construct: As F1; by count CD38 residues 264-276
The test is described as above.

Test [19] has as its target T19, F19 (peptide-Fc fusion derived from the extracellular domain of human CD38) (human, UniProt P0DOX5 223-449 = IgG part).
T19 construct: As F1; by count CD38 residues 277-289
Described as above.

Test [20] addresses T20, soluble extracellular region of cynomolgus monkey CD38 antigen fused to a 6-His-tag (cynomolgus monkey, UniProt Q5VAN0 45-301).
T20 construct: also called cynomolgus CD38
As to the kind of experiment: SPR.

Test [21] has as its target T21, F6 (peptide-Fc fusion derived from the extracellular domain of human CD38) (human, UniProt P0DOX5 195-449 = IgG part).
T21 construct: As F1; by count CD38 residues 108-120 (holds M110)
Put plainly: SPR, antibody immobilized, peptide-Fc fusion injected.

Test [22] has as its target T12, F10 (peptide-Fc fusion derived from the …). Described as above.
Test [23] has as its target T13, F11 (peptide-Fc fusion derived from the …). The test is described as above.
Test [24] concerns the target T15, F14 (peptide-Fc fusion derived from the …). The description is as above.
The target in test [25] is T17, F16 (peptide-Fc fusion derived from the …). The test is described as above.
Test [26] has as its target T18, F18 (peptide-Fc fusion derived from the …). The test is described as above.
For test [27], the target named is T19, F19 (peptide-Fc fusion derived from the …). The description is as above.
For test [28], the target named is T22, soluble extracellular region of human CD38 fused to a 6-His-tag (human, UniProt P28907 43-300).
T22 construct: Expressed with the murine VJ2C leader; also called human CD38 protein; human CD38 antigen
As to the kind of experiment: SPR, equilibrium response, antibody captured on protein G.

Test [29] addresses T1, F1 (peptide-Fc fusion derived from the …). As to the kind of experiment: SPR, human 767 antibody immobilized on the chip, peptide-Fc fusion injected.
For test [30], the target named is T2, F2 (peptide-Fc fusion derived from the …). The test is described as above.
In test [31] the target is T14, F12 (peptide-Fc fusion derived from the …). The test is described as above.
Test [32] concerns the target T9, F13 (peptide-Fc fusion derived from the …). Described as above.
The target of test [33] is T16, F15 (peptide-Fc fusion derived from the …). Described as above.
Test [34] has as its target T10, F17 (peptide-Fc fusion derived from the …). Described as above.
For test [35], the target named is T11, F20 (peptide-Fc fusion derived from the …). The test is described as above.
Test [36] deals with T3, F3 (peptide-Fc fusion derived from the …). Put plainly: SPR, antibody immobilized on the chip, peptide-Fc fusion injected (1000 nM per paragraph 238).

B1: humanized 9G7 antibody (best-fit version) as used in Example 10 (antibody, human IgG1, kappa, V domains shown)
VH: QVTLKESGPTLVKPTQTLTLTCTFSGLSLSTSGKGVGWIRQPPGKALEWLAHIWWDDDKRYNPALKSRLTITKDTSKNQVVLTMTNMDPVDTATYYCARIELGRSYVMDYWGQGTLVTVSS
VL: DIQMTQSPSSLSASVGDRVTITCQASQDVITSVAWFQQKPGKAPKLLIYSASYRYTGVPSRFSGSGSGTDFTFTISSLQPEDIATYYCQQHYTIPLTFGQGTKLEIKR
notes: also called h9G7
Regarding B1, the binding result in test [1], in [2], in [3], in test [4], in [5] and in test [6] was “no binding (tested: 15 nM; 200 nM)” each time. Besides, the binding result was “no binding (tested: 15 nM; 200 nM)” in [7]; “no binding (tested: 15 nM; 200 nM)” in test [8]; “no binding (tested: 15 nM; 200 nM)” in test [9]; “no binding (tested: 15 nM; 200 nM)” in test [10]; “no binding (tested: 15 nM; 200 nM)” in test [11]; “no binding (tested: 15 nM)” in test [12]. Also, the binding result in test [13], in test [14], in test [15], in test [16], in test [17] and in [18] was “no binding (tested: 15 nM)” in each case. In addition, the binding result in test [19] was “no binding (tested: 15 nM)”.

B2: human 767 antibody (antibody, human IgG1, kappa, V domains shown)
VH: QVQLVESGGGLVQPGGSLRLSCAASGFTFSSYWMSWVRQAPGKGLEWVANIKQDGSEKYYVDSVKGRFTISRDNAKNSLYLQMNSLRAEDTAVYYCAREGRTGYFDYWGQGTLVTVSS
VL: QSVLTQPPSASGTPGQRVTISCSGSTSNIGTNYVYWYQQLPGTAPKLLIYRNDQRPSGVPDRFSGSKSGTSASLAISGLRSEDEADYYCAAWDDSRSGVYAFGTGTKVTVLR
notes: Human IgG1
Consider B2, for which the Kd in test [20] is roughly 1200 nM; in [28], roughly 300 nM. The binding result in test [4], in [5], in test [21], in test [6], in [7] and in test [8] was “no binding (tested: 1000 nM)” each time. Also, the binding result in test [22], in test [23], in test [24], in [25], in test [26] and in [27] was “no binding (tested: 1000 nM)” throughout. The binding result in test [29], in test [30], in [31], in test [32], in test [33] and in test [34] was “no binding” in each case. Besides, the binding result in test [35] is “no binding”; in [36], “binds”.

For the origin of these results see patent US20190135918A1 (ICHNOS SCIENCES, published 2019).
